US20200164069A1 (BOSTON PHARMACEUTICALS, published 2020)

B1: recombinant cynomolgus monkey IL-21 (ligand)
chain: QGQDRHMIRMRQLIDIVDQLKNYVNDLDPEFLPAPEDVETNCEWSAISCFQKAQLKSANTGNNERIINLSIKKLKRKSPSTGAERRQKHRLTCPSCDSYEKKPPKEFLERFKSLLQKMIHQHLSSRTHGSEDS
notes: also called cyno IL-21; cynoIL-21
B2: K44VHa-N56Q (MEDI7169) (antibody, V domains shown)
VH: QVQLVQSGAEVKKPGASVKVSCKASGYTFTDYWMHWVRQAPGQGLEWMGTIDPSDQYTIYSQNFKGRVTMTRDTSTSTVYMELSSLRSEDTAVYYCARYGFAMDYWGQGTLVTVSS
VL: DIQLTQSPSSLSASVGDRVTITCRASQDISNFLNWYQQKPGKAVKLLIYYTSRLHSGVPSRFSGSGSGTDYTLTISSLQPEDFATYYCQQGHTLPRTFGGGTKVEIK

Assays:
[1] = target: T1, IL-21 (species not stated in the assay) (Homo sapiens (Human), UniProt Q9HBE4 25-162, Biotinylated in the competition ELISA of paragraph 259 (sites not given); unlabelled in the other results.); assay: method not stated
T1 construct: also called biotinylated IL-21

recombinant human IL-21 [2] = target: T2, recombinant human IL-21 (human, UniProt Q9HBE4 30-162, limits assumed); assay: cell-based or functional assay
[3] = target: B1; assay: cell-based or functional assay
[4] = target: T1, IL-21 (species not stated in the assay); assay: cell-based or functional assay
recombinant human IL-21 [5] = target: T2, recombinant human IL-21; assay: cell-based or functional assay; remark: listed apart in the source
[6] = target: B1; assay: cell-based or functional assay; remark: listed apart in the source
recombinant human IL-21 [7] = target: T2, recombinant human IL-21; assay: cell-based or functional assay; remark: listed apart in the source
[8] = target: B1; assay: cell-based or functional assay; remark: listed apart in the source
recombinant human IL-21 [9] = target: T2, recombinant human IL-21; assay: cell-based or functional assay; remark: listed apart in the source
[10] = target: B1; assay: cell-based or functional assay; remark: listed apart in the source
IL-2 = IL-2 (UniProt P60568 21-153); assay: ELISA on plate-coated cytokine (2 µg/ml)
Protocol: (§1) ELISA was used to test cross reactivity of lead clones. Cytokines tested include 11-2, IL-4, IL-7, IL-9, and IL-15. Maxisorp ELISA plate (NUNC) was coated with 2 μg/ml of different cytokines in PBS at 4° C. overnight. The plate was then blocked with 3% BSA in PBST (PBS+0.1% Tween) at room temperature for one hour. Purified lead clone IgGs were serially diluted in PBST+3% BSA and the mixture was then added to each ELISA plate well and further incubated at room temperature for half an hour. After washing, secondary antibody-HRP was added to each well for 1 hour. Wells were washed first with PBST and then with PBS and the TMB solution from Pierce was added to detect the secondary antibody. After 5′ the reaction was stopped by the addition of 1N sulfuric acid. The plates were then read in an ELISA reader at 450 nm to detect the binding.

IL-4 = target: T3, IL-4 (UniProt P05112 25-153); assay: ELISA on plate-coated cytokine (2 µg/ml)
T3 sequence (looked up): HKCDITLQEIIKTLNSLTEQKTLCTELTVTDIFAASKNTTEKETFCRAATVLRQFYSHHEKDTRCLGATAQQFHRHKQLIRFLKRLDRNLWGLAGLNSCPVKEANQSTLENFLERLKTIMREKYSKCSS
Protocol: as §1

IL-7 = target: T4, IL-7 (UniProt P13232 26-177); assay: ELISA on plate-coated cytokine (2 µg/ml)
T4 sequence (looked up): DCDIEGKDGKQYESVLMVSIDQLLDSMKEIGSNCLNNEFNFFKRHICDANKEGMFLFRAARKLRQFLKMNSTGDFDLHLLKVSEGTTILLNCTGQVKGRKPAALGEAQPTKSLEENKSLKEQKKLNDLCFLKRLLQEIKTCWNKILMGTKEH
Protocol: as §1

recombinant human IL-21 [11] = target: T2, recombinant human IL-21; assay: method not stated for this clone (Table 2, column Kd hu)
K44VHa-N56Q (MEDI7169) [12] = target: B2; assay: KinExA solution-phase equilibrium titration: fixed 50 pM K44VHa-N56Q (MEDI7169) IgG, cynomolgus monkey IL-21 varied; free IgG captured on IL-21-coated beads (the competitor)
Protocol: (§2) The IL-21-coated Azlactone bead slurries were diluted to 30 mL with instrument buffer (PBS, pH 7.4, 0.02% NaN3) in a bead vial and affixed to the KinExA instrument. A user-defined timing program was used to sequentially transfer the IL-21/Azlactone beads to a capillary flow cell in the instrument, and individual sample mixtures were injected over the IL-21-coated beads. Unbound sample solution was removed by washing the beads with instrument buffer. A 1- or 2-μg/mL solution of the DyLight649-labeled, goat-anti-hulgG(H+L) secondary reagent (Thermo Scientific) was passed over the beads to detect receptor (K44VHa-N56Q) that remained bound to the IL-21-coated beads. […] The amount of fluorescence that remained associated with the beads was measured, and the signal was converted to percent free receptor (K44VHa-N56Q). […] Once the data had been collected for all samples in each series (500 fM and 50 pM K44VHa-N56Q), an isotherm was generated, which plotted the amount of free K44VHa-N56Q detected at each concentration of IL-21. The resulting 2 binding curves were then evaluated in a dual curve analysis using the instrument's evaluation software (KinExA Pro Software, v. 2.0.1.26, Sapidyne) from which individual KDS for each interaction were derived.
(§3) The binding of K44VHa-N56Q to human and cynomolgus monkey IL-21 was measured by KinExA. […]

K44VHa-N56Q (MEDI7169) [13] = target: B2; assay: KinExA solution-phase equilibrium titration: fixed 500 fM K44VHa-N56Q (MEDI7169) IgG, cynomolgus monkey IL-21 varied; free IgG captured on IL-21-coated beads (the competitor)
Protocol: as §2, §3

IL-15 = IL-15 (UniProt P40933 49-162); assay: ELISA on plate-coated cytokine (2 µg/ml)
Protocol: as §1

recombinant human IL-21 [14] = target: T2, recombinant human IL-21; assay: KinExA 3000, solution-phase equilibrium, dual curve analysis
Protocol: as §2, §3

[15] = target: B1; assay: as above
Protocol: as §2, §3

T2 sequence (Q9HBE4 30-162 limits assumed, form in doubt): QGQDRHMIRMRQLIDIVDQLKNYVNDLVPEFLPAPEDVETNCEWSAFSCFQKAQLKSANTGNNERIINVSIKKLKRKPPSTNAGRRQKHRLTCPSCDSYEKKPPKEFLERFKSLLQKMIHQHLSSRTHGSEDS
T1 sequence (Q9HBE4 25-162 limits assumed): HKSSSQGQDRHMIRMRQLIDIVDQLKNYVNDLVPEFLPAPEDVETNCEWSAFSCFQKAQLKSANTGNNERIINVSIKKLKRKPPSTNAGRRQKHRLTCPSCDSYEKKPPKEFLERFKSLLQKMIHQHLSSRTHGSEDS
IL-2, sequence (P60568 21-153 limits assumed): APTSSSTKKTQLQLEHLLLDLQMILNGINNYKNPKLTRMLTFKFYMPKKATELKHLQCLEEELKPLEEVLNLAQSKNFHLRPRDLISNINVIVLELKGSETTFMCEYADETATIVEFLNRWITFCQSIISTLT
IL-15, sequence (P40933 49-162 limits assumed): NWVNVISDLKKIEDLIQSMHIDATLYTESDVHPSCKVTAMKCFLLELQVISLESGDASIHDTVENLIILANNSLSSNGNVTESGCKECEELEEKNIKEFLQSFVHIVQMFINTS

| Binder | Kd [1] | inhibition of IgG production by human B cells (recombinant human IL-21 [2]) | inhibition of IgG production by human B cells [3] | maximal inhibition in pSTAT3 assay [4] | IC50 in pSTAT3 assay (human PBMCs, 20 pM IL-21) (recombinant human IL-21 [5]) | IC50 in pSTAT3 assay (human PBMCs, 20 pM IL-21) [6] | IC50 in NK-92 cell assay (IFNγ, 200 pM IL-21) (recombinant human IL-21 [7]) | IC50 in NK-92 cell assay (IFNγ, 200 pM IL-21) [8] | IC50 in PC differentiation assay (2 nM IL-21) (recombinant human IL-21 [9]) | IC50 in PC differentiation assay (2 nM IL-21) [10] | binding result (IL-2) | binding result (IL-4) | binding result (IL-7) | Kd (recombinant human IL-21 [11]) | IC50 (read off the curve) (K44VHa-N56Q (MEDI7169) [12]) | IC50 (read off the curve) (K44VHa-N56Q (MEDI7169) [13]) | binding result (IL-15) | Kd (recombinant human IL-21 [14]) | Kd [15] |
| --- | --- | --- | --- | --- | --- | --- | --- | --- | --- | --- | --- | --- | --- | --- | --- | --- | --- | --- | --- |
| murine monoclonal antibody 9F11 (antibody, V domains shown, also called 9F11.1) VH: EVELVESGGGLVQPGGSMKLSCAASGFTFSDAWMDWVRQSPEKGLEWVAEIRSEADNHPTYYAESVKGRFTISRDDSKSSVYLQMNSLRAEDSGIYYCTEYDYEGFVHWGQGTLVTVSA VL: DIVLTQSPASLAVSLGQRATISCRASKSVSTYGYSYMHWYQQKPGQPPKLLIYLASNLESGVPARFSGSGSGTDFTLNIHPVEEEDAATYYCQHSRELPLTFGAGTKLELK | 10 nM | 97% | 79% | 100% | 21.7 pM | 83.2 pM | 462 pM | 867 pM | 47.3 nM | 74 nM | no binding | no binding | no binding | 0.00999 nM | – | – | – | – | – |
| B1 | – | – | – | – | – | – | – | – | – | – | – | – | – | – | ~0.06 nM | ~0.001 nM | – | – | – |
| B2 | – | – | – | 100% | 17.2 pM | 19.3 pM | 92.7 pM | 80.8 pM | 0.777 nM | 1.06 nM | no binding | no binding | no binding | – | – | – | no binding | 0.000515 nM | 0.000352 nM |
